± gives the half width of the 95% confidence interval.
Assays:
[1] = folding stability dG unfold (combined trypsin and chymotrypsin); higher = more stable
Outline: (§1)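 Digests were run with trypsin and chymotrypsin at 11 concentrations in threefold dilutions, plus a no-protease condition, on designed mini-proteins in a PA-tagged cDNA display construct. The mini-proteins were under 80 residues, had no cysteine, and were kept only when AlphaFold2 dimer inter-PAE was above 15. After sequencing, Bayesian fitting of the counts gave K50, from which unfolding free energy was derived against a sequence-predicted unfolded-state K50 and a shared folded-state K50, per protease or combined.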

[2] = folding stability dG unfold from chymotrypsin proteolysis; higher = more stable
Outline: as §1

[3] = folding stability dG unfold from trypsin proteolysis; higher = more stable
Outline: as §1

Sequence	folding stability dG unfold [1]	folding stability dG unfold [2]	folding stability dG unfold [3]
SAGGRGEGTMNDPEGGRVYKSEYDPGDGQAEIEPKPVPPVPPIDAEELAEELEQKNGLPNDDVEDMLGSAGG [r13_824_TrROS]	-0.309 ± 0.27 kcal/mol	-0.208 ± 0.44 kcal/mol	-0.336 ± 0.084 kcal/mol
SAGGRIKDIEPIPPNDPPGQKLTIKFPDGGPIEIPMEKEPDENGPYYYKFKLQVNNGEIEVMFRIPNSAGGS [r8_360_TrROS]	5.18 ± 0.32 kcal/mol	5.47 ± 0.16 kcal/mol	3.73 ± 0.25 kcal/mol
SAGGRKAKVTVTLPDGTVVELELEFKTEEEFEKAVKEKLEELFGKSIEEVPFVEKKVTVYDPEKGSKSESAG [r5_482_JUSTAS]	2.04 ± 0.31 kcal/mol	2.18 ± 0.12 kcal/mol	1.13 ± 0.13 kcal/mol
SAGGRLVEAIREANKQGKPMSREEIKDKIKDAIREQNEENGGKIPEIEITDIHWNPDNGYVPIEIKVSAGGS [r16_365_TrROS]	-0.561 ± 0.25 kcal/mol	-0.62 ± 0.27 kcal/mol	-0.152 ± 0.2 kcal/mol
SAGGRRKIEFEVWIPMDKDGEITPNEIIEEAREIAEALPNFDNVEIEEISIQHHPDGWTRYNITIEVPSAGG [r13_462_TrROS]	2.31 ± 0.31 kcal/mol	2.42 ± 0.058 kcal/mol	2.16 ± 0.16 kcal/mol
SAGGRVRLEERVLPDGRRVLVVHLPDRPLEVVIPLEGLALPPDQPVLVRGEGGVRELPIGDLLPEALFSAGG [r13_97_TrMRF]	0.88 ± 0.036 kcal/mol	0.658 ± 0.053 kcal/mol	1.06 ± 0.011 kcal/mol
SAGGRYWKLTTPPDRPLRLVIEPVPLEDTPEEYGSRLYIPNTGKVYYFPLKYAQEILDLPWIERLEPVSAGG [r19_302_TrMRF]	0.664 ± 0.11 kcal/mol	0.343 ± 0.21 kcal/mol	0.903 ± 0.096 kcal/mol
SAGGSAAEPVVLVFKTPESEALITVPPAFVQRVTVDPGGTVRRITVDLPDGTRTFLITDDSIFVDDSAGGSA [r15_598_TrMRF]	0.709 ± 0.068 kcal/mol	0.581 ± 0.12 kcal/mol	0.753 ± 0.048 kcal/mol
SAGGSAAGAERVTYNYMIPNDGKWFMIRITIYRFEVKRDPEDNKYKLDLPPGDQLFINTEIMWFPNSAGGSA [r15_1040_TrROS]	3.73 ± 0.24 kcal/mol	4.14 ± 0.076 kcal/mol	2.72 ± 0.12 kcal/mol
SAGGSAAIPLEFELPNGERVTVYYDPETGLFTVEVEVRFGNEKGEPPEVRFRFEVDSLVDLLDFLASAGGSA [r15_31_TrMRF]	3.49 ± 0.093 kcal/mol	3.88 ± 0.039 kcal/mol	2.51 ± 0.13 kcal/mol
SAGGSAAITFPSDKTATVLSEEYDPVKKTTTVKMKVGNKEVTATLSPDGTVTIKLPDGKEETYPVGSAGGSA [r15_111_JUSTAS]	1.35 ± 0.099 kcal/mol	1.41 ± 0.016 kcal/mol	1.18 ± 0.057 kcal/mol
SAGGSAALELVEEVSEFYDPNTGKKTTLVVARKDGKPILILIPPSGATVYDASNGNKLFEIPPELLSAGGSA [r15_85_JUSTAS]	0.951 ± 0.065 kcal/mol	1.16 ± 0.074 kcal/mol	0.61 ± 0.03 kcal/mol
SAGGSAALVLSREEFDGEVLLTLRDPETGEELLARLTYVPEENLVRLETTFPDGSTTTSVLPASALSAGGSA [r15_1055_JUSTAS]	1.75 ± 0.033 kcal/mol	1.59 ± 0.059 kcal/mol	1.794 ± 0.017 kcal/mol
SAGGSADEELLEKAKEALKKAEPPKIVVLNLPLPSGKELKVTLDPTTNKFTAEFPDGGSKTFDFPESAGGSA [r15_977_JUSTAS]	0.858 ± 0.12 kcal/mol	0.86 ± 0.096 kcal/mol	1.05 ± 0.11 kcal/mol
SAGGSADIKIIKLPEKNELVILVPGEFDENVPLVLHDEGGPSWEVVDARVERVGDDLIITAKVRKSSAGGSA [r15_838_TrMRF]	0.691 ± 0.099 kcal/mol	0.701 ± 0.049 kcal/mol	0.594 ± 0.037 kcal/mol
SAGGSADKITVRVMPSPDGMYRVKIWHPGKKREYWMNPDDPDKMLEEFADEINPDRPIKVEVEPYKSAGGSA [r15_925_TrROS]	0.467 ± 0.18 kcal/mol	0.913 ± 0.16 kcal/mol	-0.919 ± 0.87 kcal/mol

Sequence	folding stability dG unfold [1]	folding stability dG unfold [2]	folding stability dG unfold [3]
SAGGSADPDDKEQKIKVEIETYRLEDNGMEVTRIELEGHGMPIYIARFPDGRMFIFTANGELEQIPSAGGSA [r15_617_TrROS]	2.41 ± 0.16 kcal/mol	2.71 ± 0.059 kcal/mol	1.97 ± 0.14 kcal/mol
SAGGSADPDSPYVIRFNKPYTTFSPDGTPIELTEDVLKRFKSEEEAKKAKEELEKKGAKVEPVEGSSAGGSA [r15_117_JUSTAS]	-0.159 ± 0.23 kcal/mol	0.242 ± 0.31 kcal/mol	-0.767 ± 0.41 kcal/mol
SAGGSADPEKVKLIEVEVEVHVEYDPEKGTYTVKAEFPDLTLSFEVPADSIHPDEKFKAPVLILVLSAGGSA [r15_190_TrMRF]	3.29 ± 0.24 kcal/mol	3.7 ± 0.22 kcal/mol	2.29 ± 0.091 kcal/mol
SAGGSADPGKPIQIAIMIHIDPEPGRIEIPIYIMDDNRVRPVSIEFTPAGTLKIEVGNKEIEIPIKSAGGSA [r15_507_TrROS]	2.24 ± 0.16 kcal/mol	2.01 ± 0.042 kcal/mol	2.46 ± 0.17 kcal/mol
SAGGSADRVTVTVTVRVRDPATGEWREVTETVTVPAPLTLEITLPPGWRLRLTLEDGELRLEVEPESAGGSA [r2_109_TrROS_Hall]	3.93 ± 0.063 kcal/mol	4.26 ± 0.051 kcal/mol	3.1 ± 0.096 kcal/mol
SAGGSADTITIFFPGMPPEFAKEILEAILYEQGWKPKSVSTERHPEKGMHTIEVRFPNGRKITIMFSAGGSA [r15_958_TrROS]	2.75 ± 0.052 kcal/mol	3.1 ± 0.016 kcal/mol	2.18 ± 0.06 kcal/mol
SAGGSADVKITEVHNPHRNPNGRPFFMVRIKWPDNGTHTIMMNPNDLDDLLAQLPPNWKIDEIHPISAGGSA [r15_339_TrROS]	1.57 ± 0.049 kcal/mol	1.68 ± 0.055 kcal/mol	1.39 ± 0.025 kcal/mol
SAGGSAEEELLKAIKEALEKAKEGETVELEITLEDGSTLRITFDAENGKITVTLPNGEKLELTIEPSAGGSA [r15_977_TrROS_Hall]	4.23 ± 0.16 kcal/mol	4.37 ± 0.18 kcal/mol	3.18 ± 0.19 kcal/mol
SAGGSAEEIARKLAEELAEEGEEVEVEVVEVEVEKVDGKEKVIRIRVKVKLPNGEELELELEIKLDELSAGG [r13_215_TrROS_Hall]	2.43 ± 0.24 kcal/mol	2.18 ± 0.28 kcal/mol	2.38 ± 0.16 kcal/mol
SAGGSAEELLKKLKIVEVKEVDGKLYIEIEVDEPGLTVEEIKEILKELNLDVPIEVKEVVVVEEKESAGGSA [r15_599_TrROS_Hall]	1.98 ± 0.11 kcal/mol	2.16 ± 0.062 kcal/mol	1.69 ± 0.14 kcal/mol
SAGGSAEIEIVIVVPEGASEEQVKALAKELKEELEKLLKVKDKDGKEKEVKIKKIKITVIVLPKEESAGGSA [r15_717_TrROS_Hall]	2.42 ± 0.2 kcal/mol	2.56 ± 0.064 kcal/mol	2.37 ± 0.087 kcal/mol
SAGGSAEKEVYLVPFESEEKREKLREALLAEPGIEEVKETEDGVLLVTVPKGLSDKVEKAIKEAGISAGGSA [r15_834_TrMRF]	1.17 ± 0.086 kcal/mol	1.08 ± 0.025 kcal/mol	1.21 ± 0.047 kcal/mol
SAGGSAEKVEIKVTYDKETGKVTVEIRVEVDLSEEQLKKLKELAEELGLEVEVTVEVRYEPPPPKESAGGSA [r15_542_TrROS_Hall]	2.27 ± 0.49 kcal/mol	2.18 ± 0.31 kcal/mol	2.99 ± 0.38 kcal/mol
SAGGSAENDRFIVRVTIQMRNPGDGEKRTHTIPWFEFEPGKPAEEFAIDIADDFGIDNIDVEVYPLSAGGSA [r15_540_TrROS]	1.57 ± 0.052 kcal/mol	1.68 ± 0.026 kcal/mol	1.35 ± 0.023 kcal/mol
SAGGSAEPLVYELPDGTVVLLPPTTAVVYHRLSDGRVVVVGLEVDDPPDPEKALARARAVVEALPDSAGGSA [r15_748_TrMRF]	1.26 ± 0.13 kcal/mol	1.6 ± 0.11 kcal/mol	0.067 ± 0.25 kcal/mol

— the supplement of paper PMC12764529
